2 substances from US20260248897 can be followed below.

Data set [1] concerns the target RBD of SARS-CoV-2 (B lineage) (UniProt P0DTC2).
For data set [2], the target named is RBD of SARS-CoV-2, on infectious virus (UniProt P0DTC2).
In a further data set the target is RBD of hCoV-229E (UniProt P15423).

Regarding “gene recombinant of human ERp46 (thioredoxin domain containing 5)”, the “disulfide bond cleavage activity (remaining rate of native RBD; maleimide-PEG 2k, SDS-PAGE)” value was “The order of the disulfide bond cleavage activity of the RBD from highest to lowest was PDI, ERp46, P5, ERp72, and ERp57” in data set [1]; “The order of the disulfide bond cleavage activity of the RBD of hCoV-229E from highest to lowest was PDI, ERp46, P5, Erp57, and ERp72” in the data set with RBD of hCoV-229E. In data set [2], the “antiviral activity (number of viral copies of SARS-CoV-2 in supernatant of infected airway organoids)” value was “Both PDI and ERp46 inhibited the SARS-CoV-2 infection in a concentration-dependent manner”.
“gene recombinant of human PDI (protein disulfide isomerase)”: the “disulfide bond cleavage activity (remaining rate of native RBD; maleimide-PEG 2k, SDS-PAGE)” value is “The order of the disulfide bond cleavage activity of the RBD from highest to lowest was PDI, ERp46, P5, ERp72, and ERp57. Among these, the disulfide bond cleavage activity of PDI was significantly high” in data set [1]; “The order of the disulfide bond cleavage activity of the RBD of hCoV-229E from highest to lowest was PDI, ERp46, P5, Erp57, and ERp72. Among these, the disulfide bond cleavage activity of PDI was significantly high” with RBD of hCoV-229E. In addition, the “antiviral activity (number of viral copies of SARS-CoV-2 in supernatant of infected airway organoids)” value in data set [2] is “Both PDI and ERp46 inhibited the SARS-CoV-2 infection in a concentration-dependent manner”.
